Source: patent US20090226437A1 (Genentech, published 2009)

Key:
[1] = target: T1, human alpha4beta7 receptor on RPMI8866 cells (human, UniProt P13612 34-1032; P26010 20-798); assay: cell adhesion inhibition, RPMI8866 cells on coated 7dVCAM-1, Exp 1
T1 construct: whole, on cells; also called alpha4beta7 on RPMI8866
Procedure: (§1) RPMI8866/MAdCAM-1-Ig Cell Adhesion: RPMI8866 cells express alpha4beta7 on their surface (Roswell Park Memorial Institute, Buffalo, N.Y.). Humanized Fib504 variants (hu504 variants) were contacted with a mixture of RMPI8866 cells and MAdCAM fused to IgG coated on a solid support. […] After blocking the plates with 200 ul/well of 5 mg/ml BSA for one hour at room temperature, 50 μl of humanized Fib504 variants in assay media (RPMI 1640 media, Hyclone®, Logan Utah, USA, supplemented with 5 mg/mL BSA) were added to each well and 150,000 BCECF-labeled cells (BCECF, Molecular Probes, Eugene, Oreg.) in 50 μl of assay media were added to each well and incubated for 15 minutes at 37° C. The wells were washed two times with 150 μl of assay media to remove unbound cells. The bound cells were solubilized with 100 μl of 0.1% SDS in 50 mM Tris/HCl pH7.5. The amount of fluorescence released from lysed cells was measured by SPECTRAmax GEMINI™ (Molecular Devices, Sunnyvale, Calif.) at 485 nm excitation 530 nm emission wavelengths. The fluorescence values were analyzed as a function of the concentrations of the humanized Fib504 variants added in each assay, using a four-parameter nonlinear least squares fit, to obtain the IC₅₀ values of each humanized Fib504 variant in the assay. IC₅₀ and IC₉₀ values were estimated from the four-parameter fit. FIG. 14 is an exemplary plot of the results. The IC₉₀ and IC₅₀ values for each of the variants tested are shown below in Table 4.
(§2) RPMI8866/7dVCAM-1 Cell Adhesion: The RPMI8866/7dVCAM-1 assay is similar format to the RPMI8866/MAdCAM-1-Ig except that 7dVCAM-1 (ADP5, R&D Systems, Minneapolis, Minn.) was used at 2 ug/ml to coat plates. The results were analyzed as described above for the MAdCAM binding experiments. The IC₅₀ values for each of the variants tested are shown below in Table 5.

[2] = target: T2, alphaEbeta7 on alphaEbeta7-transfected 293 cells (human, UniProt P38570 19-1179; P26010 20-798); assay: cell adhesion inhibition, alphaEbeta7 293 cells on coated huE-Cadherin, experiment 1 of 3
T2 construct: whole, on cells; also called alphaEbeta7 293 cells
Procedure: (§3) After blocking the plates with 200 ul/well of 5 mg/ml BSA for one hour at room temperature, 50 μl of humanized Fib504 variants in assay media (RPMI 1640 media, Hyclone®, Logan Utah, USA, supplemented with 5 mg/mL BSA) were added to each well and 150,000 BCECF-labeled cells (BCECF, Molecular Probes, Eugene, Oreg.) in 50 μl of assay media were added to each well and incubated for 15 minutes at 37° C. The wells were washed two times with 150 μl of assay media to remove unbound cells. The bound cells were solubilized with 100 μl of 0.1% SDS in 50 mM Tris/HCl pH7.5. The amount of fluorescence released from lysed cells was measured by SPECTRAmax GEMINI™ (Molecular Devices, Sunnyvale, Calif.) at 485 nm excitation 530 nm emission wavelengths. The fluorescence values were analyzed as a function of the concentrations of the humanized Fib504 variants added in each assay, using a four-parameter nonlinear least squares fit, to obtain the IC₅₀ values of each humanized Fib504 variant in the assay. IC₅₀ and IC₉₀ values were estimated from the four-parameter fit. FIG. 14 is an exemplary plot of the results. The IC₉₀ and IC₅₀ values for each of the variants tested are shown below in Table 4.
(§4) The assay format is similar to the RPMI8866/MAdCAM-1-Ig assay except that the huE-Cadherin (648-EC, R&D Systems, Minneapolis, Minn.) was used at 2 μg/ml to coat the plates. Plates were then blocked with 5 mg/ml BSA as mentioned above and 50 μl of FIB504 variants in assay media (F-12:DMEM (50:50) supplemented with 5 mg/ml BSA) were add to each well and 110,000 BCECF labeled cells in 50 ul of assay media were added to each well and incubated for 15 minutes at 37° C. The wells were washed two times with 150 μl of assay media and the amount of fluorescence released by lysed cells was measured and analyzed as described above.

[3] = target: T3, alpha4beta7 on 38C13 alpha4+ murine lymphoma cells transfected with integrin beta7 (38C13beta7 cells) (murine, UniProt Q00651 41-1039; P26011 20-806); assay: cell adhesion inhibition, 38C13beta7 cells on coated muVCAM-1-Ig, experiment 2 of 2
T3 construct: whole, on cells; also called 38C13-beta7 expressing cells; murine beta7-containing receptor
Procedure: as §1
(§5) 38C13beta7/muVCAM-1-Ig Cell Adhesion Assay: The 38C13beta7/muVCAM-1-Ig assay was performed according to the murine MAdCAM-1-Ig/RPMI8866 cell binding assay above, except that muVCAM-1-Ig (Genentech, Inc.) was used at 2 μg/ml to coat plates. (IC₅₀ and IC₉₀ values for 2 experiments are shown).

[4] = target: T2, alphaEbeta7 on alphaEbeta7-transfected …; assay: cell adhesion inhibition, alphaEbeta7 293 cells on coated huE-Cadherin, experiment 3 of 3
Procedure: as §3, §4

[5] = target: T1, human alpha4beta7 receptor on RPMI8866 …; assay: cell adhesion inhibition, RPMI8866 cells on coated 7dVCAM-1, Exp 2
Procedure: as §1, §2

[6] = target: T1, human alpha4beta7 receptor on RPMI8866 …; assay: cell adhesion inhibition, RPMI8866 cells on coated MAdCAM-1-Ig, Exp 1
Procedure: as §1

[7] = target: T3, alpha4beta7 on 38C13 alpha4+ murine …; assay: cell adhesion inhibition, 38C13beta7 cells on coated muMAdCAM-1-Ig, experiment 2 of 2
Procedure: as §1
(§6) 38C13beta7/muMAdCAM-1-Ig Cell Adhesion Assay: The 38C13beta7/muMAdCAM-1-Ig assay was similar format to the RPMI8866/MAdCAM-1-Ig except that muMAdCAM-1-Ig (Genentech, Inc.) was used at 2 μg/ml to coat plates. 38C13 alpha4+ murine lymphoma cells (Crowe, D. T. et al., J. Biol. Chem. 269:14411-14418 (1994)) were transfected with DNA encoding integrin beta7 such that alpha4beta7 was expressed on the cell surface. The ability of the antibodies variants to disrupt interaction between the cell membrane associated alpha4beta7 and MAdCAM was performed as above.

[8] = target: T2, alphaEbeta7 on alphaEbeta7-transfected …; assay: cell adhesion inhibition, alphaEbeta7 293 cells on coated huE-Cadherin, experiment 2 of 3
Procedure: as §3, §4

[9] = target: T1, human alpha4beta7 receptor on RPMI8866 …; assay: cell adhesion inhibition, RPMI8866 cells on coated MAdCAM-1-Ig, Exp 2
Procedure: as §1

[10] = target: T3, alpha4beta7 on 38C13 alpha4+ murine …; assay: cell adhesion inhibition, 38C13beta7 cells on coated muMAdCAM-1-Ig, experiment 1 of 2
Procedure: as §1, §6

[11] = target: T3, alpha4beta7 on 38C13 alpha4+ murine …; assay: cell adhesion inhibition, 38C13beta7 cells on coated muVCAM-1-Ig, experiment 1 of 2
Procedure: as §1, §5

T2 sequence (P38570 19-1179, chain 1 of 2): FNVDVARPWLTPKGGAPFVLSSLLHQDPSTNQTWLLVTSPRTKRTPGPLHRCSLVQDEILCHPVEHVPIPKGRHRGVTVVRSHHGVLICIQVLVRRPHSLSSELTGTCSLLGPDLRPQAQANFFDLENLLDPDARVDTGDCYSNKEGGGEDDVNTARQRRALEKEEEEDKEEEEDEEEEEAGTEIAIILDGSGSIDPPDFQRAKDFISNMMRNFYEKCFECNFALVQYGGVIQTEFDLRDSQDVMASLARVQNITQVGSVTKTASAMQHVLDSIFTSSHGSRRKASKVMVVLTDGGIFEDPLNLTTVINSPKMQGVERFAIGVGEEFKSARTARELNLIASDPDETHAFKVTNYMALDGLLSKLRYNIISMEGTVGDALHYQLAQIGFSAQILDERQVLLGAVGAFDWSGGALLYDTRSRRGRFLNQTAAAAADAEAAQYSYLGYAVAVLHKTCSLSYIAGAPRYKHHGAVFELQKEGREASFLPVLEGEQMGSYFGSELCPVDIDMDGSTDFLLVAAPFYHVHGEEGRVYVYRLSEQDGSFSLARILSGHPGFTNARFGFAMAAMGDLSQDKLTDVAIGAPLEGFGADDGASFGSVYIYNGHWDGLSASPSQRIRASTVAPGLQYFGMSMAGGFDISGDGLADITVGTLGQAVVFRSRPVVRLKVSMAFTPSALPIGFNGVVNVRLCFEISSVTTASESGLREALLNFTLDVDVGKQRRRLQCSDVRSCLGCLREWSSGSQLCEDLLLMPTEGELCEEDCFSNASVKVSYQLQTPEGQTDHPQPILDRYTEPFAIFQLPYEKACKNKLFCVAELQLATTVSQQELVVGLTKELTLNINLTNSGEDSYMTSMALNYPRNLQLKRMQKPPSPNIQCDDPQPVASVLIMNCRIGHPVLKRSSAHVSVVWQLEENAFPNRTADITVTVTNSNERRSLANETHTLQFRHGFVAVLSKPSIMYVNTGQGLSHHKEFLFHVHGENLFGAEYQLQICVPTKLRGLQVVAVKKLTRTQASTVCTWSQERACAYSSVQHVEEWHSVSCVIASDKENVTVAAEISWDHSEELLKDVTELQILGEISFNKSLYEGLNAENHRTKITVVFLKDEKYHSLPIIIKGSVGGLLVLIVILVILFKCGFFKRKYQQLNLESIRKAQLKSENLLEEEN
T2 sequence (P26010 20-798, chain 2 of 2): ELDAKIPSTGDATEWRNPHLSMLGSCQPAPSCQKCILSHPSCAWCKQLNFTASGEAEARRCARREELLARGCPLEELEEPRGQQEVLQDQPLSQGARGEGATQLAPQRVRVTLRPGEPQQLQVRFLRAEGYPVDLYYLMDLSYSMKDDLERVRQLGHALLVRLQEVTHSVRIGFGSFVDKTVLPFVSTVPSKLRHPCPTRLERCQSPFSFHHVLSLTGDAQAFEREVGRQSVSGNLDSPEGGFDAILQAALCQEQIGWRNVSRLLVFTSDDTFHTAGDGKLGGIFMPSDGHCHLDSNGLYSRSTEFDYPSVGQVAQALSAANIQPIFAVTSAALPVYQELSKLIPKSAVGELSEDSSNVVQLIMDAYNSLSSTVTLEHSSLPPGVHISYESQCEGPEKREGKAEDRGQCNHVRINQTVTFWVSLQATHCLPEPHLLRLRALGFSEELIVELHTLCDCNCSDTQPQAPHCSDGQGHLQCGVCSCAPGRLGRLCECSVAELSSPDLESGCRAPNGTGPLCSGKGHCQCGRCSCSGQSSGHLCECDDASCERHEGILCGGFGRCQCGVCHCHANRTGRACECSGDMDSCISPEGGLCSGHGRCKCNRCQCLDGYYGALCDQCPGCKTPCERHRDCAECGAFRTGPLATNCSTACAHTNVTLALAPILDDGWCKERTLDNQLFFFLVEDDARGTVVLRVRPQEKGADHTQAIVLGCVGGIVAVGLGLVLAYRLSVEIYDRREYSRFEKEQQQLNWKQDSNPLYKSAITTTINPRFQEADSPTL
T3 sequence (Q00651 41-1039, chain 1 of 2): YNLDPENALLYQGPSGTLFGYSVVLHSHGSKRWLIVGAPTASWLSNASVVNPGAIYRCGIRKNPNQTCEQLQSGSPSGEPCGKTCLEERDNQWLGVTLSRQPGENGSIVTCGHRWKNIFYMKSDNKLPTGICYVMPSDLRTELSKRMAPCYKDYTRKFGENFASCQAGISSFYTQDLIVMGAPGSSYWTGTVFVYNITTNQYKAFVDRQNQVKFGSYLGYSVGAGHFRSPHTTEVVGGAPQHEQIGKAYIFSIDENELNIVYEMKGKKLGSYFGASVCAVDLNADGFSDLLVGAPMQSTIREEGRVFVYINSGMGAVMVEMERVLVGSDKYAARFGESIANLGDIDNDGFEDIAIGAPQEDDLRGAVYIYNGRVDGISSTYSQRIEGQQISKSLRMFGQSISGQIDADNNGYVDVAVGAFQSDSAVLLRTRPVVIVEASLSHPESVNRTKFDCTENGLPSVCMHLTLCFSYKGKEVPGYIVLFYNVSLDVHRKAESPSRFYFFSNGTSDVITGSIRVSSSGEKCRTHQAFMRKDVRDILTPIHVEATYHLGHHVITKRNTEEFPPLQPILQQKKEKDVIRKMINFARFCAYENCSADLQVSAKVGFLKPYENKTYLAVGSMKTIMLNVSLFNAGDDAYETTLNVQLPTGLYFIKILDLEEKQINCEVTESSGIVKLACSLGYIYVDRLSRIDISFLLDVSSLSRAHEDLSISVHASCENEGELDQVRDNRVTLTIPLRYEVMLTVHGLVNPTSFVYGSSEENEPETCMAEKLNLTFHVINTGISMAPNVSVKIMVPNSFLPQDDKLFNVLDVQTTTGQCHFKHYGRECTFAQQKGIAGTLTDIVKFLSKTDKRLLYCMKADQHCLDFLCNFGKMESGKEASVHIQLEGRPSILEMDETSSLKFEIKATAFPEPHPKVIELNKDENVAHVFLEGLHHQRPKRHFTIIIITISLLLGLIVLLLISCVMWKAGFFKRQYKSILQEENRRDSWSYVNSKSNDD
T3 sequence (P26011 20-806, chain 2 of 2): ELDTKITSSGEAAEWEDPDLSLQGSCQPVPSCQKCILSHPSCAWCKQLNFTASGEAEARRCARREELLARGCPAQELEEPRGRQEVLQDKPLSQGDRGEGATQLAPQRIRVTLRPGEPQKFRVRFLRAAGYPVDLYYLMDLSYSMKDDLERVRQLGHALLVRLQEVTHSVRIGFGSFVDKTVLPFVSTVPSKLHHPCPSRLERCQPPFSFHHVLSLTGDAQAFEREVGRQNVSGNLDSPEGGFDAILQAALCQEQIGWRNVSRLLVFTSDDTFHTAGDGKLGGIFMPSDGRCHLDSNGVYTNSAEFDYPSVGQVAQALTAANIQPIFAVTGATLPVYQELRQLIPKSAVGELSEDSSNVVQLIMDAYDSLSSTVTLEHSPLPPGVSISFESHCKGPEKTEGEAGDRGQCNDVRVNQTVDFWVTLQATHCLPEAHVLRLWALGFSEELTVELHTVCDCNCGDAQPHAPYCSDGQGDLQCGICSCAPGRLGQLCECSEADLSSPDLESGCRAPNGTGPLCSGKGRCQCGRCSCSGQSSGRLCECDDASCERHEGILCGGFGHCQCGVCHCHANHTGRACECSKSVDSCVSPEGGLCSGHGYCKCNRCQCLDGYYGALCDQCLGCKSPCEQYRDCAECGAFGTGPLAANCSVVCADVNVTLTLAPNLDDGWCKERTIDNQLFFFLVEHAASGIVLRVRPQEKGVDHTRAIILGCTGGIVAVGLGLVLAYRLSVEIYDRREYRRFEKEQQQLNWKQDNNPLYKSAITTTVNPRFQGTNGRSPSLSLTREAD
T1 sequence (P13612 34-1032, chain 1 of 2): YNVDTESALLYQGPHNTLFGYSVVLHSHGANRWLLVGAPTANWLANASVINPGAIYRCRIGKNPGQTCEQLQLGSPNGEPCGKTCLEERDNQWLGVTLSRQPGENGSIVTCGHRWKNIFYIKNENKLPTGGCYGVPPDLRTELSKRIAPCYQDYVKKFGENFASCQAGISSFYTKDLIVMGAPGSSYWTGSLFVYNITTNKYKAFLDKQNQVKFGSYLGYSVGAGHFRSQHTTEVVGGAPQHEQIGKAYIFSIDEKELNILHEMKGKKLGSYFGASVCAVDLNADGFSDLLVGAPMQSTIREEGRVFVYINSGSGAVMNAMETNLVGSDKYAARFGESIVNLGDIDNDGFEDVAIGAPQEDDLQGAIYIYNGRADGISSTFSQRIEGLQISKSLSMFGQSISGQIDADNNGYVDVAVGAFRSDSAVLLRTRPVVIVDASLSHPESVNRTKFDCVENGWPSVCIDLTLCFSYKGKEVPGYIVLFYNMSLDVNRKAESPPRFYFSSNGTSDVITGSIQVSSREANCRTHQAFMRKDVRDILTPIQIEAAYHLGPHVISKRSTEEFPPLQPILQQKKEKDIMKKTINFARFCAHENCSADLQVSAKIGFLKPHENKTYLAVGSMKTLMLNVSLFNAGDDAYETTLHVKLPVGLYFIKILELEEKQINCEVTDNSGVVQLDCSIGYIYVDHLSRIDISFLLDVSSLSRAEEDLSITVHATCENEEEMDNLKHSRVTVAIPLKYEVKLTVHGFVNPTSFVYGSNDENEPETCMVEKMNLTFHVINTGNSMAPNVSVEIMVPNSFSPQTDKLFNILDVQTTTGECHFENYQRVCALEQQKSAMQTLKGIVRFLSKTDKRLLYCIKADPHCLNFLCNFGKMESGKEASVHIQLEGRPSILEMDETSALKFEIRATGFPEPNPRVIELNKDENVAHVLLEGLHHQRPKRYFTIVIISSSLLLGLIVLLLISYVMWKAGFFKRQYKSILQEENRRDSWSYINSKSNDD
T1 sequence (P26010 20-798, chain 2 of 2): as the sequence (P26010 20-798, chain 2 of 2) above

| Binder | IC50 [1] | IC90 [1] | IC50 [2] | IC90 [2] | IC50 [3] | IC90 [3] | IC50 [4] | IC90 [4] | IC50 [5] | IC90 [5] | IC50 [6] | IC90 [6] | IC50 [7] | IC90 [7] | IC50 [8] | IC90 [8] | IC50 [10] | IC90 [10] | IC50 [11] | IC90 [11] | also measured |
| --- | --- | --- | --- | --- | --- | --- | --- | --- | --- | --- | --- | --- | --- | --- | --- | --- | --- | --- | --- | --- | --- |
| Rat Fib504 (antibody FIB504.64 produced by hybridoma ATCC HB-293) (antibody, V domains shown, Whole rat antibody in the cell adhesion assays; also called rat anti-mouse beta7 antibody) VH: EVQLQESGPGLVKPSQSLSLTCSVTGFFITNNYWGWIRKFPGNKMEWMGYISYSGSTSYNPSLKSRISITRDTSKNQFFLQLNSVTTEDTATYYCAMTGSSGYFDFWGPGTMVTVSS VL: DVVMTQSPATLSVTPGERISLSCRASESVDTYLHWYQQKPNESPRLLIKYASQSISGIPSRFSGSGSGTDFTLSINGVELEDLSIYYCQQGNSLPNTFGAGTKLELKR | 0.107 nM | 0.396 nM | 2.05 nM | 8.8 nM | 0.447 nM | 2.3 nM | 4.19 nM | 9.95 nM | 0.193 nM | 0.58 nM | 0.098 nM | 0.483 nM | 0.306 nM | 1.51 nM | 7.89 nM | 24.5 nM | 0.682 nM | 2.87 nM | 0.845 nM | 2.9 nM | IC50 [9]: 0.197 nM; IC90 [9]: 0.703 nM |
| Variant hu504.32, IgG (antibody, V domains shown, methionine at heavy chain position 94; also called hu504.32M; 504.32M) VH: EVQLVESGGGLVQPGGSLRLSCAASGFFITNNYWGWVRQAPGKGLEWVGYISYSGSTSYNPSLKSRFTISRDTSKNTFYLQMNSLRAEDTAVYYCAMTGSSGYFDFWGQGTLVTVSS VL: DIQMTQSPSSLSASVGDRVTITCRASESVDDLLHWYQQKPGKAPKLLIKYASQSISGVPSRFSGSGSGTDFTLTISSLQPEDFATYYCQQGNSLPNTFGQGTKVEIKR | – | – | 1.81 nM | 8.8 nM | 0.33 nM | 1.84 nM | 3.47 nM | 11.7 nM | – | – | – | – | 0.458 nM | 1.51 nM | 6.99 nM | 24.5 nM | 0.718 nM | 4.08 nM | 0.562 nM | 2 nM | – |
| Variant hu504.5, IgG (antibody, name in Kabat numbering, V domains shown) VH: EVQLVESGGGLVQPGGSLRLSCAASGFFITNNYWGWVRQAPGKGLEWVGYISYSGSTSYNPSLKSRFTISRDTSKNTFYLQMNSLRAEDTAVYYCAMTGSSGYFDFWGQGTLVTVSS VL: DIQMTQSPSSLSASVGDRVTITCRASESVDSLLHWYQQKPGKAPKLLIKYASQSISGVPSRFSGSGSGTDFTLTISSLQPEDFATYYCQQGNSLPNTFGQGTKVEIKR | 0.088 nM | 0.396 nM | 2.13 nM | 7.99 nM | 0.407 nM | 2.3 nM | 4.77 nM | 10.2 nM | 0.27 nM | 0.726 nM | 0.067 nM | 0.361 nM | 0.466 nM | 2.61 nM | 10.2 nM | 28.7 nM | 0.859 nM | 2.32 nM | 0.763 nM | 3.07 nM | IC50 [9]: 0.248 nM; IC90 [9]: 0.88 nM |
| Variant hu504.16, IgG (antibody, name in Kabat numbering, V domains shown) VH: EVQLVESGGGLVQPGGSLRLSCAASGFFITNNYWGWVRQAPGKGLEWVGYISYSGSTSYNPSLKSRFTISRDTSKNTFYLQMNSLRAEDTAVYYCAMTGSSGYFDFWGQGTLVTVSS VL: DIQMTQSPSSLSASVGDRVTITCRASESVDTLLHWYQQKPGKAPKLLIKYASQSISGVPSRFSGSGSGTDFTLTISSLQPEDFATYYCQQGNSLPNTFGQGTKVEIKR | 0.098 nM | 0.261 nM | 1.96 nM | 7.03 nM | 0.584 nM | 1.84 nM | 4.58 nM | 13.5 nM | 0.223 nM | 0.774 nM | 0.0768 nM | 0.244 nM | 0.61 nM | 4.08 nM | 10.1 nM | 33.7 nM | 0.998 nM | 3.72 nM | 0.835 nM | 2.86 nM | IC50 [9]: 0.206 nM; IC90 [9]: 0.551 nM |
